Consider two molecules from patent US20150306174A1 (NEW YORK BLOOD CENTER, published 2015).

Ends that are not written are not given here.

The target of data set [1] is T1, C34 (HIV-1).
T1 construct: also called CHR-peptide C34; C-peptide C34
Briefly: CD thermal denaturation monitored at 222 nm.

Data set [2] addresses T1, C34. Put plainly: CD spectroscopy of the N-peptide/C-peptide mixture in PBS.

B1: N28Fd trimer (designed binder)
chain: IEAQQHLLQLTVWGIKQLQARILAVERYGYIPEAPRDGQAYVRKDGEWVLLSTFL
modifications: also: trimer
notes: It gives the full length as 55 residues; also called FdN28Fd1
As for B1, the “Tm of the complex” value in the data set with C34 [1] amounted to 62.2 ° C.

B2: N28 (peptide)
peptide: IEAQQHLLQLTVWGIKQLQARILAVERY
notes: Residue numbers count on HIV-1 HXB2 gp160; also called N28 peptide; free N28 peptide
For the molecule B2, in the data set with C34 [2], the binding result is “no binding (tested: 10 µM)”.
